In general, Kd refers to the free concentration of one partner at which half of the binding sites on the other are occupied at equilibrium, for simple one-to-one binding. A low value points to tighter binding.

This test deals with Ala6/C-degron peptide (sequence: …). The test is described as follows: ITC. Background: ITC needs no label: the signal is the heat of the interaction.

WT Pirh2 I110D came in with an equilibrium dissociation constant (Kd) of 40 µM.

The record behind these values is PMC10148881, “Recognition of an Ala-rich C-degron by the E3 ligase Pirh2” (Nature Communications, 2023).
